From patent US20130190246A1 (PURDUE RESEARCH FOUNDATION, published 2013)
Where no end group is shown, it is not given here. The star is where a group is joined. Dansyl = CN(C)c1cccc2c(S(=O)(=O)*)cccc12

Tests used:
[1] = target: collagen (type and supplier not stated; Examples 11 and 12); experiment: fluorescence plate binding assay, dansyl label, collagen coated on 96-well plate
Method: (§1) Binding assays were done in a 96-well high-binding plate, black with a clear bottom (Costar). Collagen was compared to untreated wells and BSA coated wells. Collagen and BSA were immobilized at 37° C. for 1 hr by incubating 90 μL/well at concentrations of 2 mg/mL in 10 mM HCl and 1×PBS, respectively. Each well was washed 3× with 1×PBS after incubating. Z-SILY was dissolved in 1×PBS at concentrations from 100 μM to 10 nM in 10-fold dilutions. Wells were incubated for 30 min at 37° C. and rinsed 3× with PBS and then filled with 90 μL of 1×PBS. Fluorescence readings were taken on an M5 Spectramax Spectrophotometer (Molecular Devices) at excitation/emission wavelengths of 335 nm/490 nm respectively.

[2] = target: collagen (type and supplier not stated; Examples 11 and 12); experiment: fluorescence plate assay, collagen-coated wells, binding curve from the data of FIG. 4
Method: as §1

Kd [1]: 860 nM
EC50 (read off the curve) [2]: ~900 nM
B1: Dansyl-GRRANAALKAGELYKSILYGC (Z-SILY) (peptide)
peptide: Dansyl-GRRANAALKAGELYKSILYGC
notes: Fluorescently labelled version of SILY; also called dansyl-modified peptide SILY
